Measurements as given in publication PMC5686067.
Each block holds one substance with its values, some of them ahead of it.

What was measured:
[1] = target: Prc (full-length, C-terminal His-tag) (E. coli) (UniProt P23865)
[2] = target: sNlpI (soluble NlpI without its lipoprotein signal peptide) (E. coli) (UniProt P0AFB1); assay: SEC-MALS; ENrich SEC 650 column, 20 mM Tris-HCl pH 7.5, 200 mM NaCl, 2 mM DTT, 0.02% NaN3, 240-360 µg protein injected
[3] = target: sNlpI (soluble NlpI without its lipoprotein signal peptide) (E. coli) (UniProt P0AFB1); assay: AUC; sedimentation velocity, absorbance optics, 20 mM Tris-HCl pH 8.0, 100 mM NaCl, 2 mM DTT, 20 °C, c(s) model in Sedfit
[4] = target: sMepS-6×His-C (soluble MepS without its lipoprotein signal peptide, C-terminal His-tag) (E. coli) (UniProt P0AFV4); assay: ITC; iTC200, 20 °C, 20 mM HEPES pH 7.5, 300 mM NaCl, 2 mM 2-mercaptoethanol; 23 µM sMepS or Prc in the cell, 230 µM sNlpI (alone or with equimolar Prc) in the syringe; one binding site model
Sequence of sMepS-6×His-C (soluble MepS without its lipoprotein signal peptide, C-terminal His-tag) (E. coli) (P0AFV4 28-188 limits assumed): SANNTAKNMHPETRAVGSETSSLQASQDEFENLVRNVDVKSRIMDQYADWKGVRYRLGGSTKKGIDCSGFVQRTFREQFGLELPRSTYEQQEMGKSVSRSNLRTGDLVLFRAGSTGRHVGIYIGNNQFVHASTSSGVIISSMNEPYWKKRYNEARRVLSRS

Sequence of sNlpI (soluble NlpI without its lipoprotein signal peptide) (E. coli) (P0AFB1 20-294): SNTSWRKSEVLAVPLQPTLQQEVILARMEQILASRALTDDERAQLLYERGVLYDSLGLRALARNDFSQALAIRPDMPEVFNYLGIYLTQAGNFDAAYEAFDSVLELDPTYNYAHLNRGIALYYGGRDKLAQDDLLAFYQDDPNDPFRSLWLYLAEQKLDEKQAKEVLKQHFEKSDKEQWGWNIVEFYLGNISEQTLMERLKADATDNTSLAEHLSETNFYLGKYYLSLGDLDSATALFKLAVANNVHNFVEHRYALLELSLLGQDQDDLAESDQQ
Sequence of Prc (full-length, C-terminal His-tag) (E. coli) (P23865 23-682 limits assumed): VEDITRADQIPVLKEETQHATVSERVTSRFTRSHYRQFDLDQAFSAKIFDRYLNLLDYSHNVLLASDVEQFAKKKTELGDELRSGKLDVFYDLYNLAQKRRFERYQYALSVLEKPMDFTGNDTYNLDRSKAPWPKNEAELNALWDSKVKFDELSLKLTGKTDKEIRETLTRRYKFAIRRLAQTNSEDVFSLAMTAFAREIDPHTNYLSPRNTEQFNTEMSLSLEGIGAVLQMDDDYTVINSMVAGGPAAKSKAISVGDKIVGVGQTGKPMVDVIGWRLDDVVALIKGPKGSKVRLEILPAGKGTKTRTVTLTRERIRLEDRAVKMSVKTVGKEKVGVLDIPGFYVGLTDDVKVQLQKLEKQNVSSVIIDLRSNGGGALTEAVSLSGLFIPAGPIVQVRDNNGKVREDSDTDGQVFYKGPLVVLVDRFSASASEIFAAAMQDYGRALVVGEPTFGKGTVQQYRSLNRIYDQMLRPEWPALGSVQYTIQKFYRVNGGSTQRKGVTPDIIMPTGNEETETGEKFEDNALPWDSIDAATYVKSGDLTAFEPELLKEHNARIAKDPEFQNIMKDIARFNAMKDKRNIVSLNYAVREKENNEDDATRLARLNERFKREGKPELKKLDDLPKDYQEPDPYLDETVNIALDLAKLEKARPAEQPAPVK

specific degradation activity of Prc against MepS with sNlpI-QM (nmol min^−1 per mg) [1]: 0.98
Substance: sNlpI-QM (D113A/E117A/D120/E124A quadruple mutant) (from UniProt P0AFB1 20-294) (natural protein)

stoichiometry N (Prc per sNlpI (printed 2:2)) [2]: 1
stoichiometry N (Prc per sNlpI (printed 2:2)) [3]: 1
Substance: Prc (full-length, C-terminal His-tag) (from UniProt P23865 23-682) (enzyme)

Kd [4]: 2090 nM
Substance: sNlpI-Prc complex (from UniProt P0AFB1 20-294; P23865 23-682)
